Experimental data taken from article PMC6701862 (Science (New York, N.Y.), 2019).

Target: GluA2 subunit of native AMPA receptors (nAMPAR) from rat brain (rat (endogenous in rat brain), UniProt P19491)
Assay: cryo-EM structure

GluA2 subunit of native AMPA receptors (nAMPAR) from rat brain, sequence (P19491 22-883): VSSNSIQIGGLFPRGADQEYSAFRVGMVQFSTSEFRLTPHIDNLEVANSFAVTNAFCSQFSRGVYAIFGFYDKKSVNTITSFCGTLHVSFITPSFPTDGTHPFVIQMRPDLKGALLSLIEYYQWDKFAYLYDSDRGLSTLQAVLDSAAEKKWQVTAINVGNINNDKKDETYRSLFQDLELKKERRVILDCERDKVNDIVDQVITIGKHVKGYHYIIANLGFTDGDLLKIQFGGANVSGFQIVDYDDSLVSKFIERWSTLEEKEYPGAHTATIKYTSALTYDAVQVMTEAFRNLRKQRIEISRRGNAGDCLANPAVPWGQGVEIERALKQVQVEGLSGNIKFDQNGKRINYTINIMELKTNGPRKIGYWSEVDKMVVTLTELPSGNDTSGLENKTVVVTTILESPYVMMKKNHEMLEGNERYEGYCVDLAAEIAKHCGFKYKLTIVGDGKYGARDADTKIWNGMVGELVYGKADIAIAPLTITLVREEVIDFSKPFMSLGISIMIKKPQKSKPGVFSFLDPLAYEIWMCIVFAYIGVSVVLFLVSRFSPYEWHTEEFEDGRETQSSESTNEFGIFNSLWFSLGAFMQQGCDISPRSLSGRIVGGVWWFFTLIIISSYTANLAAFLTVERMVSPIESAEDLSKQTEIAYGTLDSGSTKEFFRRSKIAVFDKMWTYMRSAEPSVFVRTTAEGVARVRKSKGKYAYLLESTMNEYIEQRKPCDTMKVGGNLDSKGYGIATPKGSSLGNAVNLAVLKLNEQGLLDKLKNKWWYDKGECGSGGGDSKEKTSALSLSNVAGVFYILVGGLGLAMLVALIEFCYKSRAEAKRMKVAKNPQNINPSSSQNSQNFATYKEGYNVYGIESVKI

B1: 15F1 Fab, anti-GluA2 (Fab, V domains shown)
VH: QAQLKESGPGLVAPSQSLSITCTVSGFSLTNYGVHWVRQPPGKGLEWLGVIWAGGSTNYNSALMSRVSISKDNSKSQVFLKMNSLQTDDTVMYYCAREDYDYDWHFDVWGAGTTVTVSS
VL: EIQMTQTTSSLSASLGDRVTISCRASQDISNYLSWYQQKPDGTVKLLIYYTSRLHSGVPSRFSGSGSGIDYSLTINNLEQEDFATYFCQQGNTLPLTFGAGTKLELK
- binding result: binds
